The values below come from US20250326797A1, “PROTEIN-PROTEIN INTERACTION MODULATORS AND METHODS FOR DESIGN THEREOF” (RAMOT AT TEL AVIV UNIVERSITY LTD., priority 2022, published 2025).

Test [1] deals with T1, CaN PxIxIT binding site (CaNA, catalytic subunit of calcineurin) (Homo sapiens, UniProt Q08209, L343A/M347D/Y341S).
T1 construct: GST; made in house; host or cells: E. coli BL21
Put plainly: Fluorescence Polarization (FP) competition assay with FITC-labeled PVIVIT peptide. The settings on record: for ability to compete with PVIVIT for CaN binding: result in words; for IC50: competition with 100 nM FITC-labeled PVIVIT peptide, 4 uM CaNA, single site inhibition model, read-out: IC50: half maximal inhibitory concentration. Here is the method:
(§1) Fluorescence Polarization (FP) competition assay. Fluorescence measurements were performed on samples arrayed in a 96-well plate using Biotek HybridHI reader equipped with a polarized optic system. All measurements were done in triplicate. […] Experimental polarization data from simple and competitive binding experiments were fitted using GraphPad Prism7, with error bars representing standard deviation.
Selected peptides were synthesized and their ability to specifically bind the CaN PxIxIT binding site was evaluated by FP competition assay.
(§2) Polarization levels were read and normalized values were fitted to a single site model.
The above peptides are synthesized and their ability to specifically bind the CaN PxIxIT binding site is evaluated by FP competition assay. […] After fitting the polarization values to a single site inhibition model, the corresponding IC50 values are extracted.
(In fluorescence polarisation assays a small probe gives low polarisation when free and higher when bound to something large.)

The target in test [2] is T2, Catalytic subunit of calcineurin (CaNA), residues 2-347 with substitutions Y341S, L343A and M347D (UniProt Q08209 2-347).
T2 construct: range 2-347; Expressed as a cleavable GST fusion and purified on a GST column and by size exclusion; The microarray used GST-tagged CaN; also called Cn
Briefly: FP competition assay against FITC-PVIVIT (100 nM) on CaNA (4 uM); single site inhibition fit. On the procedure:
as §1
(§3) Selected peptides were synthesized and their ability to specifically bind the CaN PxIxIT binding site was evaluated by FP competition assay. […] After fitting the polarization values to a single site inhibition model, the corresponding IC₅₀ values were extracted and reported in Table 2.

The target of test [3] is T2, Catalytic subunit of calcineurin …. Put plainly: FP competition assay against FITC-PVIVIT on CaNA. On the procedure:
as §1, §3

Test [4] shares this target. Put plainly: fluorescence polarization competition; unlabeled peptide titrated against 100 nM FITC-labeled PVIVIT bound to 4 uM CaNA. On the procedure: as §1, §3, §2

T1 sequence (Q08209 2-347 Y341S/L343A/M347D): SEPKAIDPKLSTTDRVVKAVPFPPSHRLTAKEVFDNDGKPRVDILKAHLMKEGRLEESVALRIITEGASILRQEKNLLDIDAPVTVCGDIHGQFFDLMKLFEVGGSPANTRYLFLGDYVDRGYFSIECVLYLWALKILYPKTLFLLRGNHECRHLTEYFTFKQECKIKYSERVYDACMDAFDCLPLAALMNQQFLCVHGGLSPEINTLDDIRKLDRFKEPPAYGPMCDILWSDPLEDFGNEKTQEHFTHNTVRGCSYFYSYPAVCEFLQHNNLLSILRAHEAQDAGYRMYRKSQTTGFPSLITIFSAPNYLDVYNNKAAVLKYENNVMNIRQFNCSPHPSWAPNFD
T2 sequence (Q08209 2-347 Y341S/L343A/M347D): as above

Ac-AAGAGVGIVITVTEAE-NH2 [rbmAKAP79]: the “ability to compete with PVIVIT for CaN binding” value in test [1] is on record as “successfully competed with PVIVIT binding”.
On to Ac-ADEAIPEIVISKPEEP-NH2 [rbmTRESK], for which the IC50 in test [1] was 14 µM. Besides, the “IC50 relative to closest natural counterpart (human TRESK fragment)” value in test [1] (rbmTRESK vs natural TRESK fragment) is “almost four times lower”.
Turning to “Ac-ADEAVPQIIISAEELP-NH2 [TRESK, reference compound]”, in test [1], the IC50 was found to be 54 µM.
Turning to Ac-ADGAGVGIVITVTEAE-NH2 [rbmAKAP79_2], the “ability to compete with PVIVIT for CaN binding” value in test [1] was “successfully competed with PVIVIT binding”.
As for Ac-ASVSNPEITVTSAETE-NH2 (designed binder) [rbmRIPOR2], the IC50 in test [2] was determined as 79 µM.
Same read-out and setting: as for Ac-ADEAIPEITITSAELP-NH2 (designed binder) [rbmTRESK_2], the figure is 60 µM; as for Ac-AAGAGVGIVITVTEAE-NH2 (designed binder) [rbmAKAP79], 57 µM.
Still for that read-out and setting: as for Ac-ADGAGVGIVITVTEAE-NH2 (designed binder) [rbmAKAP79_2], the figure is 69 µM.
As for Ac-ADEAIPEIVISKPEEP-NH2 (designed binder) [rbmTRESK], the “fold lower IC50 than the CaN-binding fragment of human TRESK protein (SEQ ID NO: 3)” value in test [3] was roughly 4 fold. In addition, the “IC50 (read off the curve)” value in test [4] was roughly 10 µM.
Turning to Ac-HVSSSPRITITPTQHR-NH2 (designed binder) [rbmRIPOR2_2], the IC50 in test [2] came out at 200 µM.
